# Test results as given in the Human Domainome abundance scans (Beltran et al. 2025).
# ± gives the uncertainty stated by the source.
# B1: Intersectin-2, residues 1129 to 1183; numbered along this chain, Q9NZM3 (parent)
# chain: VCQVIAMYDYAANNEDELSFSKGQLINVMNKDDPDWWQGEINGVTGLFPSNYVKM
# Variants of: B1
# Assay: abundance fitness (aPCA) (normalised: wild type 0, dead -1); higher = more abundant; growth selection in yeast, the domain comes from the species named
# Conditions: Homo sapiens
row,Variant,abundance fitness
1,VCQVIAMYDYAANNEDEASFSKGQLINVMNKDDPDWWQGEINGVTGLFPSNYVKM [L18A],-0.715 ± 0.06
2,VCQVIAMYDYAAWNEDELSFSKGQLINVMNKDDPDWWQGEINGVTGLFPSNYVKM [N13W],-0.306 ± 0.069
3,VCQVIAMYDYAAPNEDELSFSKGQLINVMNKDDPDWWQGEINGVTGLFPSNYVKM [N13P],-0.133 ± 0.055
4,VCQVIAMYDYAAINEDELSFSKGQLINVMNKDDPDWWQGEINGVTGLFPSNYVKM [N13I],-0.071 ± 0.05
5,VCQVIAMYDYAALNEDELSFSKGQLINVMNKDDPDWWQGEINGVTGLFPSNYVKM [N13L],0.01 ± 0.036
6,VCQVIAMYDYAARNEDELSFSKGQLINVMNKDDPDWWQGEINGVTGLFPSNYVKM [N13R],0.038 ± 0.047
7,VCQVIAMYDYAAANEDELSFSKGQLINVMNKDDPDWWQGEINGVTGLFPSNYVKM [N13A],-0.024 ± 0.041
8,VCQVIAMYDYAASNEDELSFSKGQLINVMNKDDPDWWQGEINGVTGLFPSNYVKM [N13S],0.014 ± 0.029
9,VCQVIAMYDYAAHNEDELSFSKGQLINVMNKDDPDWWQGEINGVTGLFPSNYVKM [N13H],0.106 ± 0.057
10,VCQVIAMYDYAATNEDELSFSKGQLINVMNKDDPDWWQGEINGVTGLFPSNYVKM [N13T],0.011 ± 0.037
11,VCQVIAMYDYAAGNEDELSFSKGQLINVMNKDDPDWWQGEINGVTGLFPSNYVKM [N13G],0.031 ± 0.039
12,VCQVIAMYDYAAQNEDELSFSKGQLINVMNKDDPDWWQGEINGVTGLFPSNYVKM [N13Q],0.051 ± 0.033
13,VCQVIAMYDYAAYNEDELSFSKGQLINVMNKDDPDWWQGEINGVTGLFPSNYVKM [N13Y],-0.141 ± 0.069
14,VCQVIAMYDYAAFNEDELSFSKGQLINVMNKDDPDWWQGEINGVTGLFPSNYVKM [N13F],-0.092 ± 0.042
15,VCQVIAMYDYAAENEDELSFSKGQLINVMNKDDPDWWQGEINGVTGLFPSNYVKM [N13E],-0.017 ± 0.041
16,VCQVIAMYDYAAKNEDELSFSKGQLINVMNKDDPDWWQGEINGVTGLFPSNYVKM [N13K],0.042 ± 0.037
17,VCQVIAMYDYAAMNEDELSFSKGQLINVMNKDDPDWWQGEINGVTGLFPSNYVKM [N13M],-0.014 ± 0.037
18,VCQVIAMYDYAADNEDELSFSKGQLINVMNKDDPDWWQGEINGVTGLFPSNYVKM [N13D],-0.033 ± 0.034
19,VCQVIAMYDYAAVNEDELSFSKGQLINVMNKDDPDWWQGEINGVTGLFPSNYVKM [N13V],-0.003 ± 0.033
20,VCQVIAMYDYAACNEDELSFSKGQLINVMNKDDPDWWQGEINGVTGLFPSNYVKM [N13C],-0.047 ± 0.056
21,VCQVIAMYDYAANNWDELSFSKGQLINVMNKDDPDWWQGEINGVTGLFPSNYVKM [E15W],-0.141 ± 0.047
22,VCQVIAMYDYAANNNDELSFSKGQLINVMNKDDPDWWQGEINGVTGLFPSNYVKM [E15N],-0.123 ± 0.069
23,VCQVIAMYDYAANNMDELSFSKGQLINVMNKDDPDWWQGEINGVTGLFPSNYVKM [E15M],-0.083 ± 0.061
24,VCQVIAMYDYAANNSDELSFSKGQLINVMNKDDPDWWQGEINGVTGLFPSNYVKM [E15S],-0.01 ± 0.039

row,Variant,abundance fitness
1,VCQVIAMYDYAANNHDELSFSKGQLINVMNKDDPDWWQGEINGVTGLFPSNYVKM [E15H],0 ± 0.068
2,VCQVIAMYDYAANNKDELSFSKGQLINVMNKDDPDWWQGEINGVTGLFPSNYVKM [E15K],-0.048 ± 0.059
3,VCQVIAMYDYAANNTDELSFSKGQLINVMNKDDPDWWQGEINGVTGLFPSNYVKM [E15T],0.033 ± 0.049
4,VCQVIAMYDYAANNPDELSFSKGQLINVMNKDDPDWWQGEINGVTGLFPSNYVKM [E15P],0.011 ± 0.036
5,VCQVIAMYDYAANNADELSFSKGQLINVMNKDDPDWWQGEINGVTGLFPSNYVKM [E15A],-0.03 ± 0.036
6,VCQVIAMYDYAANNIDELSFSKGQLINVMNKDDPDWWQGEINGVTGLFPSNYVKM [E15I],-0.076 ± 0.054
7,VCQVIAMYDYAANNVDELSFSKGQLINVMNKDDPDWWQGEINGVTGLFPSNYVKM [E15V],-0.014 ± 0.045
8,VCQVIAMYDYAANNRDELSFSKGQLINVMNKDDPDWWQGEINGVTGLFPSNYVKM [E15R],-0.037 ± 0.03
9,VCQVIAMYDYAANNYDELSFSKGQLINVMNKDDPDWWQGEINGVTGLFPSNYVKM [E15Y],-0.002 ± 0.06
10,VCQVIAMYDYAANNFDELSFSKGQLINVMNKDDPDWWQGEINGVTGLFPSNYVKM [E15F],-0.12 ± 0.06
11,VCQVIAMYDYAANNCDELSFSKGQLINVMNKDDPDWWQGEINGVTGLFPSNYVKM [E15C],-0.048 ± 0.031
12,VCQVIAMYDYAANNGDELSFSKGQLINVMNKDDPDWWQGEINGVTGLFPSNYVKM [E15G],-0.006 ± 0.034
13,VCQVIAMYDYAANNEVELSFSKGQLINVMNKDDPDWWQGEINGVTGLFPSNYVKM [D16V],-0.082 ± 0.044
14,VCQVIAMYDYAANNEWELSFSKGQLINVMNKDDPDWWQGEINGVTGLFPSNYVKM [D16W],-0.117 ± 0.038
15,VCQVIAMYDYAANNEQELSFSKGQLINVMNKDDPDWWQGEINGVTGLFPSNYVKM [D16Q],-0.044 ± 0.039
16,VCQVIAMYDYAANNEFELSFSKGQLINVMNKDDPDWWQGEINGVTGLFPSNYVKM [D16F],-0.04 ± 0.033
17,VCQVIAMYDYAANNEEELSFSKGQLINVMNKDDPDWWQGEINGVTGLFPSNYVKM [D16E],-0.011 ± 0.057
18,VCQVIAMYDYAANNEMELSFSKGQLINVMNKDDPDWWQGEINGVTGLFPSNYVKM [D16M],-0.066 ± 0.049
19,VCQVIAMYDYAANNEAELSFSKGQLINVMNKDDPDWWQGEINGVTGLFPSNYVKM [D16A],0.004 ± 0.041
20,VCQVIAMYDYAANNEKELSFSKGQLINVMNKDDPDWWQGEINGVTGLFPSNYVKM [D16K],0.016 ± 0.035
21,VCQVIAMYDYAANNEYELSFSKGQLINVMNKDDPDWWQGEINGVTGLFPSNYVKM [D16Y],0.047 ± 0.066
22,VCQVIAMYDYAANNECELSFSKGQLINVMNKDDPDWWQGEINGVTGLFPSNYVKM [D16C],-0.014 ± 0.057
23,VCQVIAMYDYAANNERELSFSKGQLINVMNKDDPDWWQGEINGVTGLFPSNYVKM [D16R],0.001 ± 0.038
24,VCQVIAMYDYAANNEPELSFSKGQLINVMNKDDPDWWQGEINGVTGLFPSNYVKM [D16P],-0.075 ± 0.058
